This is an account of results in publication PMC1361615.

This data set has as its target His-tagged M.RsrI (UniProt P14751 1-319). In words: size-exclusion chromatography.

His-tagged M.RsrI, sequence (P14751 whole entry): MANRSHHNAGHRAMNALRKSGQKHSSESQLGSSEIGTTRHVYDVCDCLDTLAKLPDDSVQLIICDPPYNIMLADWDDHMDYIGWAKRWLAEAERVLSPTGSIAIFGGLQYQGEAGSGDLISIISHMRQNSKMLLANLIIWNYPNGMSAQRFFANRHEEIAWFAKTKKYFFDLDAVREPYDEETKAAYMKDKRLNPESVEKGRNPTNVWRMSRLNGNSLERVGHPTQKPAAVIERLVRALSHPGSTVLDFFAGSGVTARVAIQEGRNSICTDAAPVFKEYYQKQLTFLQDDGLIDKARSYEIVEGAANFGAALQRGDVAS

B1: 25 bp unmethylated duplex, gel filtration (dsDNA)
DNA 1: GGCAGACACGGAATTCCACAGACGG
DNA 2: CCGTCTGTGGAATTCCGTGTCTGCC
modifications: none
Turning to B1, the binding result is “binds”.
